Legend:
HLA-DRB1*0401 (human) = assay: radioligand binding
HLA-DRB1*0404 (human) = assay: radioligand binding

## tyrosinase 365-381D (peptide)
HLA-DRB1*0401 (human)
  IC50: 17 nM
HLA-DRB1*0404 (human)
  IC50: 31 nM

From publication PMC2363969, “gp100/pmel17 and tyrosinase encode multiple epitopes recognized by Th1-type CD4+T cells” (British Journal of Cancer, 2001)
